# Data published in publication PMC12554172 (2025).
# B1: FLAG-tagged FBXO44 FBA domain (FBXO44^FBA) [human] / RGS2^5–16 peptide (RGS2 degron, Met^5–Met^16) [not stated] (parent complex)
# chain 1: FYFLRSLHRNLLHNPCAEEGFEFWSLDVNGGDEWKVEDLSRDQRKEFPNDQVKKYFVTSYYTCLKSQVVDLKAEGYWEELMDTTRPDIEVKDWFAARPDCGSKYQLCVQLLSSAHAPLGTFQPDPATIQQKSDAKWREVSHTFSNYPPGVRYIWFQHGGVDTHYWAGWYGPRVTNSSITIGP
# chain 2: MFLAVQHDCRPM
# Variants of: B1
# Test: peptide microarray (PEPperPRINT), α-FLAG fluorescence; three independent experiments with three technical replicates each; parent: 100; read off a plot
row,percent of parent,Variant
1,~15 % Parent,chain 2 MFLAVQHDERPM [chain 2 C9E]
2,~15 % Parent,chain 2 MFLAVQHDNRPM [chain 2 C9N]
3,~13 % Parent,chain 2 MFLAVQHDMRPM [chain 2 C9M]
4,~28 % Parent,chain 2 MFLAVQHDDRPM [chain 2 C9D]
5,~15 % Parent,chain 2 MFLAVQHDPRPM [chain 2 C9P]
6,~15 % Parent,chain 2 MFLAVQHDTRPM [chain 2 C9T]
7,~20 % Parent,chain 2 MFLAVQHDFRPM [chain 2 C9F]
8,~55 % Parent,chain 2 MFLAVQHDYRPM [chain 2 C9Y]
9,~50 % Parent,chain 2 MFLAVQHDWRPM [chain 2 C9W]
10,~13 % Parent,chain 2 MFLAVQHDGRPM [chain 2 C9G]
11,~13 % Parent,chain 2 MFLAVQHDSRPM [chain 2 C9S]
12,~15 % Parent,chain 2 MFLAVQHDIRPM [chain 2 C9I]
13,~47 % Parent,chain 2 MFLAVQHDKRPM [chain 2 C9K]
14,~25 % Parent,chain 2 MFLAVQHDARPM [chain 2 C9A]
15,~13 % Parent,chain 2 MFLAVQHDVRPM [chain 2 C9V]
16,~25 % Parent,chain 2 MFLAVQHDQRPM [chain 2 C9Q]
17,~13 % Parent,chain 2 MFLAVQHDLRPM [chain 2 C9L]
18,~130 % Parent,chain 2 MFLAVQHDRRPM [chain 2 C9R]
19,~17 % Parent,chain 2 MFLAVQHDHRPM [chain 2 C9H]

# Variants of: B1
# Test: as above
# Remark: another data set of the same source
row,percent of parent,Variant
1,~200 % Parent Peptide,chain 2 MFLAVQHDCRPR [chain 2 M12R]
2,~150 % Parent Peptide,chain 2 MFLAVQHDCRKM [chain 2 P11K]
3,~260 % Parent Peptide,chain 2 MFLAVQHDCRRM [chain 2 P11R]

# More lines, now with the values behind:
row,Variant,percent of parent
1,chain 2 MFLAVQHDRRPM [chain 2 C9R],~130 % Parent Peptide
2,chain 2 MFLAVQHKCRPM [chain 2 D8K],~220 % Parent Peptide
3,chain 2 MFLAVQHRCRPM [chain 2 D8R],~280 % Parent Peptide
4,chain 2 MFLAVQRDCRPM [chain 2 H7R],~140 % Parent Peptide

# Variants of: B1
# Test: as above
# Remark: another data set of the same source
row,percent of parent,Variant
1,~90 % Parent,chain 2 MFLAVQHDCRPV [chain 2 M12V]
2,~90 % Parent,chain 2 MFLAVQHDCRPL [chain 2 M12L]
3,~88 % Parent,chain 2 MFLAVQHDCRPQ [chain 2 M12Q]
4,~72 % Parent,chain 2 MFLAVQHDCRPG [chain 2 M12G]
5,~200 % Parent,chain 2 MFLAVQHDCRPR [chain 2 M12R]
6,~85 % Parent,chain 2 MFLAVQHDCRPT [chain 2 M12T]
7,~100 % Parent,chain 2 MFLAVQHDCRPF [chain 2 M12F]
8,~130 % Parent,chain 2 MFLAVQHDCRPD [chain 2 M12D]
9,~85 % Parent,chain 2 MFLAVQHDCRPI [chain 2 M12I]
10,~87 % Parent,chain 2 MFLAVQHDCRPN [chain 2 M12N]
11,~110 % Parent,chain 2 MFLAVQHDCRPW [chain 2 M12W]
12,~120 % Parent,chain 2 MFLAVQHDCRPY [chain 2 M12Y]
13,~90 % Parent,chain 2 MFLAVQHDCRPH [chain 2 M12H]
14,~90 % Parent,chain 2 MFLAVQHDCRPP [chain 2 M12P]
15,~92 % Parent,chain 2 MFLAVQHDCRPS [chain 2 M12S]
16,~67 % Parent,chain 2 MFLAVQHDCRPA [chain 2 M12A]
17,~130 % Parent,chain 2 MFLAVQHDCRPC [chain 2 M12C]
18,~140 % Parent,chain 2 MFLAVQHDCRPK [chain 2 M12K]
19,~110 % Parent,chain 2 MFLAVQHDCRPE [chain 2 M12E]

# Variants of: B1
# Test: as above
# Remark: another data set of the same source
row,percent of parent,Variant
1,~140 % Parent,chain 2 MFLAVQHICRPM [chain 2 D8I]
2,~150 % Parent,chain 2 MFLAVQHWCRPM [chain 2 D8W]
3,~160 % Parent,chain 2 MFLAVQHQCRPM [chain 2 D8Q]
4,~130 % Parent,chain 2 MFLAVQHHCRPM [chain 2 D8H]
5,~130 % Parent,chain 2 MFLAVQHLCRPM [chain 2 D8L]
6,~140 % Parent,chain 2 MFLAVQHMCRPM [chain 2 D8M]
7,~150 % Parent,chain 2 MFLAVQHNCRPM [chain 2 D8N]
8,~160 % Parent,chain 2 MFLAVQHSCRPM [chain 2 D8S]
9,~220 % Parent,chain 2 MFLAVQHKCRPM [chain 2 D8K]
10,~140 % Parent,chain 2 MFLAVQHCCRPM [chain 2 D8C]
11,~130 % Parent,chain 2 MFLAVQHTCRPM [chain 2 D8T]
12,~100 % Parent,chain 2 MFLAVQHECRPM [chain 2 D8E]
13,~160 % Parent,chain 2 MFLAVQHPCRPM [chain 2 D8P]
14,~130 % Parent,chain 2 MFLAVQHGCRPM [chain 2 D8G]
15,~130 % Parent,chain 2 MFLAVQHFCRPM [chain 2 D8F]
16,~140 % Parent,chain 2 MFLAVQHVCRPM [chain 2 D8V]
17,~280 % Parent,chain 2 MFLAVQHRCRPM [chain 2 D8R]
18,~130 % Parent,chain 2 MFLAVQHYCRPM [chain 2 D8Y]
19,~120 % Parent,chain 2 MFLAVQHACRPM [chain 2 D8A]

# Variants of: B1
# Test: as above
# Remark: another data set of the same source
row,percent of parent,Variant
1,~85 % Parent,chain 2 MFLAVQHDCRTM [chain 2 P11T]
2,~100 % Parent,chain 2 MFLAVQHDCRFM [chain 2 P11F]
3,~90 % Parent,chain 2 MFLAVQHDCRQM [chain 2 P11Q]
4,~72 % Parent,chain 2 MFLAVQHDCRAM [chain 2 P11A]
5,~100 % Parent,chain 2 MFLAVQHDCRMM [chain 2 P11M]
6,~120 % Parent,chain 2 MFLAVQHDCRCM [chain 2 P11C]
7,~130 % Parent,chain 2 MFLAVQHDCRDM [chain 2 P11D]
8,~110 % Parent,chain 2 MFLAVQHDCRYM [chain 2 P11Y]
9,~85 % Parent,chain 2 MFLAVQHDCRNM [chain 2 P11N]
10,~85 % Parent,chain 2 MFLAVQHDCRVM [chain 2 P11V]
11,~110 % Parent,chain 2 MFLAVQHDCRWM [chain 2 P11W]
12,~150 % Parent,chain 2 MFLAVQHDCRKM [chain 2 P11K]
13,~100 % Parent,chain 2 MFLAVQHDCRSM [chain 2 P11S]
14,~82 % Parent,chain 2 MFLAVQHDCRLM [chain 2 P11L]
15,~85 % Parent,chain 2 MFLAVQHDCRHM [chain 2 P11H]
16,~260 % Parent,chain 2 MFLAVQHDCRRM [chain 2 P11R]
17,~88 % Parent,chain 2 MFLAVQHDCRIM [chain 2 P11I]
18,~88 % Parent,chain 2 MFLAVQHDCREM [chain 2 P11E]
19,~68 % Parent,chain 2 MFLAVQHDCRGM [chain 2 P11G]

# Variants of: B1
# Test: as above
# Remark: another data set of the same source
row,percent of parent,Variant
1,~80 % Parent,chain 2 MFLAVQHDCPPM [chain 2 R10P]
2,~110 % Parent,chain 2 MFLAVQHDCDPM [chain 2 R10D]
3,~88 % Parent,chain 2 MFLAVQHDCMPM [chain 2 R10M]
4,~78 % Parent,chain 2 MFLAVQHDCIPM [chain 2 R10I]
5,~120 % Parent,chain 2 MFLAVQHDCYPM [chain 2 R10Y]
6,~110 % Parent,chain 2 MFLAVQHDCCPM [chain 2 R10C]
7,~95 % Parent,chain 2 MFLAVQHDCFPM [chain 2 R10F]
8,~75 % Parent,chain 2 MFLAVQHDCHPM [chain 2 R10H]
9,~120 % Parent,chain 2 MFLAVQHDCWPM [chain 2 R10W]
10,~80 % Parent,chain 2 MFLAVQHDCKPM [chain 2 R10K]
11,~110 % Parent,chain 2 MFLAVQHDCEPM [chain 2 R10E]
12,~80 % Parent,chain 2 MFLAVQHDCTPM [chain 2 R10T]
13,~80 % Parent,chain 2 MFLAVQHDCQPM [chain 2 R10Q]
14,~85 % Parent,chain 2 MFLAVQHDCVPM [chain 2 R10V]
15,~85 % Parent,chain 2 MFLAVQHDCSPM [chain 2 R10S]
16,~72 % Parent,chain 2 MFLAVQHDCAPM [chain 2 R10A]
17,~82 % Parent,chain 2 MFLAVQHDCNPM [chain 2 R10N]
18,~78 % Parent,chain 2 MFLAVQHDCGPM [chain 2 R10G]
19,~82 % Parent,chain 2 MFLAVQHDCLPM [chain 2 R10L]

# Variants of: B1
# Test: as above
# Remark: another data set of the same source
row,percent of parent,Variant
1,~100 % Parent,chain 2 MFLAVQLDCRPM [chain 2 H7L]
2,~100 % Parent,chain 2 MFLAVQDDCRPM [chain 2 H7D]
3,~110 % Parent,chain 2 MFLAVQPDCRPM [chain 2 H7P]
4,~95 % Parent,chain 2 MFLAVQADCRPM [chain 2 H7A]
5,~95 % Parent,chain 2 MFLAVQMDCRPM [chain 2 H7M]
6,~120 % Parent,chain 2 MFLAVQCDCRPM [chain 2 H7C]
7,~140 % Parent,chain 2 MFLAVQRDCRPM [chain 2 H7R]
8,~110 % Parent,chain 2 MFLAVQQDCRPM [chain 2 H7Q]
9,~100 % Parent,chain 2 MFLAVQVDCRPM [chain 2 H7V]
10,~95 % Parent,chain 2 MFLAVQTDCRPM [chain 2 H7T]
11,~110 % Parent,chain 2 MFLAVQWDCRPM [chain 2 H7W]
12,~120 % Parent,chain 2 MFLAVQKDCRPM [chain 2 H7K]
13,~95 % Parent,chain 2 MFLAVQEDCRPM [chain 2 H7E]
14,~100 % Parent,chain 2 MFLAVQSDCRPM [chain 2 H7S]
15,~110 % Parent,chain 2 MFLAVQYDCRPM [chain 2 H7Y]
16,~90 % Parent,chain 2 MFLAVQGDCRPM [chain 2 H7G]
17,~100 % Parent,chain 2 MFLAVQIDCRPM [chain 2 H7I]
18,~100 % Parent,chain 2 MFLAVQFDCRPM [chain 2 H7F]
19,~100 % Parent,chain 2 MFLAVQNDCRPM [chain 2 H7N]
